Source: the DeepSol protein solubility set

Assay: soluble on expression in E. coli; label from the status in PepcDB or PDB records

In the case of “MGSDKIHHHHHHMRIQFGYVAMSMELANASPSKTMTATQFEKIEDHEAGLRKLERIAKTNLHNCLRLLKHNLAYQISFFRLSSKLVPLVNHPLTEGWKYELAIAEELQAVGEFASEHQMRIDFHPDHFVVLNSEAKEITRRSLQTLLYHYKLLKGMEIDPRHRCVLHVGGKKKGVEAGLEQFIENTASIPKSLLSMIMLENDDKSYTIDDVLYLGEKLAIPVVLDIHHHDVLHRSKSLQETWQRIVATWEDSPLPVKIHLSSPLSGEDDPRHHDYINADRFIAFLHEIGADAVDHLHVMIEAKKKDLALFQLMKDLAEYDEITVVSKSAVEFNP”, the “soluble on expression in E. coli” value is reported as “not soluble”.
In the case of “MRNILATILLVVMLFLVACTGNNNQLVSQSELVPENTPVDGNQIKAPEETLSSDSMYSDYNGKNIKFRFPKTWEMTEYQADYEYFIRFNLPTKNKNRAPNQVTIVISDMAEKSKNFDYQNKNIFEQYIENDNTMDISNITVDGCNGYKAVSIESETLYISFEKGDLRYDLIFMSDEGEFLELLPEVESMISSISTY”, the “soluble on expression in E. coli” value is reported as “not soluble”.
For “MSASLVETVDIEAPVAVTWALWSDVSRWPSFLSHVRLVEPLDERRFAWQLSLPGADKNFVAELTEVIPGDRIAWQTTEGVHHAGVVTFHRLSDTSSRVTLQIEYDPKGFVEHIGALTNLDSTLANYDLGEFQKLAETAAAGLEHHHHHH”, the “soluble on expression in E. coli” value was “not soluble”.
In the case of “FKYIQKIAKTEIKREEVPDVKDIISAKKIKIISGIKEVLESGKYADCEKMASDLLEDADPQEVLSAVLKYALKDELS”, the “soluble on expression in E. coli” value is reported as “not soluble”.
For “MSLKKTILCFGEALIDMLAQPLVKKGMPRAFLQCAGGAPANVAVAVARLGGAVQFVGMLGSDMFGDFLFDSFAEAGVVTDGIVRTSTAKTALAFVALDAHGERSFSFYRPPAADLLFRVEHFQDASFSDALIFHACSNSMTDADIAEVTFEGMRRAQAAGAIVSFDLNFRPMLWPNGENPASRLWKGLSLADVVKLSSEELDYLANTLAADANAVIQQLWQGRAQLLLVTDAAGPVHWYTRTAGGEVPTFRVQVQDSNAAGDAFVGGMLYTFAQQFDDAAALIDFCHDPESIVSTLRFAAAVGALAVTRQGAFTAMPMLSEVLSLIQEQSEGHHHHHH”, the “soluble on expression in E. coli” value was “soluble”.
In the case of “MLPFANYYISSPSVSEKNAINNNVNKRRKKKRAMMVYGGGGGGDDLAVVKAAAWAWYLRKEGKPIMREFDVTRAQRIPRPSRYKIEATKNMILSENRVLAENRVSSTKSPLWYTNYQFRGDQETYYSRLLDTYETKNISKRLNIDDSSFSTSLSSVLKHNGDDHHNHNRNDDYGFDDHGLLKKRNGSDSNTTTRSKTNNDKSYNGGFMKKVSKRSLWKGMIVMGPGSTVCGRSDDVASQAGRRTVKVAVAAEALVRSAASGSGKTQSGHC”, the “soluble on expression in E. coli” value is reported as “not soluble”.
For “MGSDKIHHHHHHMARKPIDRPVHIPPLQALRALEAAARHRSFSRAAEELALTHSAISHHMRALEDKLGTKLFQRTGSQMAPTSAGARLAEQIRAALDDIESAVREASSSTTTPVVRLQVSVMADLANAWLIRRLPSLHAQVPSLDLHLRLHAEITPPDPYSVDVGIWHQRIDLPGFECHNLIEDHVIAVASPALLARYPGFTPADVPRMPMLRFALRPWRDWLEAAGLPDAEPERGPIFQDAGLMLQSAVAGLGVATARAQLAHDYLESGQLVQVGSTRIPSSLHYWVTWREGNPREKAIQQFHAWLQEQVRRETPTAEPTTTDDAMK”, the “soluble on expression in E. coli” value was “not soluble”.
With “MEMKNVKGTKDYLPEEQVLRNKIKRACEDTFERYGCKPLETPTLNMYELMSYKYGGGDEILKEIYTLQDQGKRNLALRYDLTIPFAKVVAMNPNIRLPFKRYEIGKVFRDGPIKQGRFREFIQCDVDIVGVESVMAEAELMSMAFELFRTLNLEVTIQYNNRKLLNGILESINIPTERTSDVILSLDKIEKIGIDGVRKDVLERGISEEMADTICNTVLSCLKLTIADFKEAFNNPLVADGVNELQQLQQYLIALGINENAIFNPFLARGLTMYTGTVYEIFLKDGSITSSIGSGGRYDNIIGAFRGDNMNYPTVGISFGLDVIYTALSQKETISSTADVFIIPLGTELQCLQIAQQLRSTTSLKVELELAGRKLKRALNYANKENIPYVLIIGEDELSTETVVLRNMKEGSEVKVPLSSLKDNTFNNYCNIPIKL” the “soluble on expression in E. coli” value was “soluble”.
For “MGSDKIHHHHHHMRNKIEKGVDLNLRQFIKSLGYIAGGTALLASTPWLSSCTPEKLKEIRNEKARIALIGTGSRGQYHIHNLKEIPHARIVAVCDNYAPNLQQAVELCPGAKAYTDYRKLLESADIDGVIISTPLNWHAPIVLDALAAGKHVFCEKAMARTLDECKAIYDAYQTTNQVLYFCMQRMYDEKYIKGMQMIHSGLIGDVVGMRCHWFRNADWRRPVPSPELEHQINWRLYKESSGGLMTELACHQLEVCNWAAKRMPVSIIGMGDIVYWKDGREVYDSVNVTYRYSDGTKIAYESLISNKFNGMEDQILGHKGTMEMAKGIYYLEEDHSTSGIRQLIGQVKDKVFAAIPTAGPSWRPETKMEYTPHFVIEGDINVNNGLSMIGADKDGSDIILSSFCQSCITGEKAQNVVEEAYCSTVLCLLGNQAMEEERHILFPDEYKIPYMKF”, the “soluble on expression in E. coli” value was “not soluble”.
In the case of “MAIFHLDFKIVKRSEGKSSVAKAAYHARCKITDERTGDTYDYSRRDDLYGHFILAPANAPEHIVKDSTSLWNEVERVERQNNGQTARYFDVSIPTELNNDEKKKLVLEYCQKNFVDKGMIADIAFHDLDSDNPHAHVMLTLKTIGPEGFGKKERSWNDRKMSVLWRESWASMANSYLATAGSSERIDHRSLQAQHEEALEKAAVALDNEEKALWLAKAAETNRPPMKRIHSAKWRSKAAQEQRAAEQTVRDAAKLEAVEVYKTFSELDLEIVVDVRSFTISVLPKPEEIVIPDFSTREKHQSIVSPVTSRRPAVKSYRAPNKATKVGMRGEGTPVLVAPEPNKSTKLKTSSSKKTRAMNRAPMHSRKQVKPHQNGLFKRLTTYMVCLFKEKFIWSKKKPIPVDAEHDKRIADNYVFDEIQGIYVSRAEYERRARFNNGTYSPAPDEVRRFPHRTKEEQHKVDDEPDYDPSSTPVPIISRKHLSLKPLEHHHHHH”, the “soluble on expression in E. coli” value is reported as “not soluble”.
For “MGSDKIHHHHHHMDPRLLPLLSCPRHPTVTLTVEQVERVVNGAIVSGRLRCPVCATTYLIKDGILDMIGQHRPTSAAQVVNEVPVAAWAYERTWRPFALSLLSGEQFPLTRELKLITGLAGAERGGLMVDVGCSNGLYARALEHVRRQRGAGGFVVGIDLSMAMLQEAQRRARHEGLSISFIRASAQAMPFADGTVDALVMGGSLNEIGDIPAALSEWRRLLSPQGRGVMMSLVAASTPIGQGIQQLLASGGLQFPSLAELNHYFTAAGLRLRAQWQYGIVVFSVLQ”, the “soluble on expression in E. coli” value was “not soluble”.
With “MVAEGFRLDLLLTIAQLVPSTYHYQVKQLDKPDKDKDLKAEIQAIYDEHKGNYGYRRIHLELRNRGFSVNHKKVQGLMKELGLTARIRRRKRYKSYKGDVGKKAPNLIERAFEGAKPFEKCYTDVTEFALPNCAEKLYLSPVLDGYNSEIIDFTLSRSPNLIQVKTMLEKVFPEETYPNTILHSDQGWQYQHEVYHRFLASKGIRPSMSRKGTSTDNSMMESFFGVLKTEMFYGFEKNFKSLDQLEQAITEYIFYYNNKRIKTKLKGLSPVQYRTKSFQ” the “soluble on expression in E. coli” value was “not soluble”.
In the case of “MSLRTASVIVDLPTRQTNQPFTYLIPDDLLDFNLLGHRVRVPFGKRNLMGYVVAVGQSERSDFQLKKIESIIDEKPVLNSEMLKLSEWLSNYVFSYRVQVIQTILPNAFKPKYLKGLKIVDQVPEKIKENIFLNNQEIEFLPKNYTSEQIKVINSLIRQGKIVQTTTIQKKNKGKKVKVLSNNLNDNDIATNLNKKSLSDSQKKLLIFLSGHRDGFFQVKELAEILDISKSTILTAEKKSWLKKSEVRMTRNPVKKIAVTKTNAVELNSDQKKVFNSVESAITKNENKTFLLEGITGSGKTEVYLQLIEKTIAQGKTALLLVPEIALTPQMIRLVKSRFLDSVALLHSGLSDGERLDQWEEIRDGKIKIVIGTRSAVFSPLTNIGLIIMDEEHETNYKQEGNPRYHARDIALWRAKYHQAVTLLGSATPSLESRARAQKGIFKLLTMNHRAVSGAKLPDVSIVDMREVWQKEHADNDFSPTLLKKIEERKENHEQTILLLNRRGFSSFVMCRNCGYVPRCPNCNLSLTLHMDSHSLKCHYCGYEEAIPKKCPVCGSPQIRYVGTGTEKIETKLNSLVNGIRVARLDQDTTKRKGSLEKILRDFGKGNYDVLLGTQMVAKGLDFPDVTLVGVINADIGLNLPDFRSGEKTFQLLTQVAGRSGRAGKTGEVIIQTFNPDNYAIKLAADQNYEGFYKTEMSIRHIADYSPYYYTIQVGIDGPDQFPASRAIDEVAEFIKPKLAKETIVLGPTPKAIAKLRNRYYFQIILKYKKDPNIESTLSELQTVFGEKLPKDIYLSIDRDPVSEGHHHHHH”, the “soluble on expression in E. coli” value is reported as “soluble”.
For “PMILGYWNVRGLTHPIRLLLEYTDSSYEEKRYAMGDAPDYDRSQWLNEKFKLGLDFPNLPYLIDGSRKITQSNAIMRYLARKHHLCGETEEERIRVDVLENQAMDTRLQLAMVCYSPDFERKKPEYLEGLPEKMKLYSEFLGKQPWFAGNKITYVDFLVYDVLDQHRIFEPKCLDAFPNLKDFVARFEGLKKISDYMKSGRFLSKPIFAKMAFWNPK”, the “soluble on expression in E. coli” value was “soluble”.
For “EALLNDSALQSVPIVVPSRGSKLLGATLKTELTQEEVQQTLVDGFFPQVAITDHPVQRNRGALTQMGLPYAQDAGITRHIAAFLSKQAHAQSGGESAQAQDFNPFANMPGMPGSDAAQSADFIKPTAILFNGGVLKSKLLATRLEDTINKWLIEADAEMAKRLTGVDLDLAVASGAAYYGSVRRGQGVRIRGGIASAYYVGIESAMPAIPGMAPPMEALCVAPFGMEEGSSVDVPSQEFGLIIGQPVNFQFFGSTVRRDDLAGTHLDYWAPEELEELPEIQVTLPVSEGRREGEVVPVTLASRVTELGTLYLEAIAADNGQKWHVEFDVREDAKSDSNEEQ”, the “soluble on expression in E. coli” value was “not soluble”.
With “MKIGIIGAMQQEVAILKDLIEDVQEVNQAGCTFYSGQIQGVDVVLLQSGIGKVSAALGTALLISQYAPDVVINTGSAGGFDASLNVGDVVISSEVRHHDADVTAFGYEIGQMAGQPAAFKADEKLMTVAEQALAQLPNTHAVRGLICTGDAFVCTAERQQFIRQHFPSVVAVEMEASAIAQTCHQFKVPFVVVRAISDVADKESPLSFEEFLPLAAKSSSAMVLKMVELLK” the “soluble on expression in E. coli” value was “soluble”.
For “MYLKETLDQFTSINNILKLLKKSPGFNKYCIQERLPKETVITSDKRRKYIYIIEDGFMKLVFEGTNKHNFSYILQKGAFPHLPVYTEDIPKHMMLIALTDVVWWKIEFQFFKEMMELEDPRNYIMLHQLAETRRRLYIIAVQEKLSSRESIYFSLNTMIDYGLRVSEKAVELPKFLTYQILADNSNTSKSYTSKVLSNLREKGILESQKKPWRINDVQKLQELIDAEALLAIL”, the “soluble on expression in E. coli” value was “not soluble”.
For “MRTIKLIIAYDGTAYAGFQRQPNGITIQQRLEEALRAVTGEPDLRIGAAAGRTDAGVHARGQVVHLRTYATIPIDRWPAALNGHLPDDIAVIGAEEAPPDFHARYWAREKRYRYTFCLSPYRLPMARLYSYHWHRPVDVDAMRRAAALLVGRHDFAAFRATGGSARTTVRTITRLTLTEEPPFLHLDVTADGFLYNMVRIIAGTLLEVGAGRRSLDRVAQALRHGRREDAGRTLPPHGLCLEEVVYGDGPSIPPWAAEAAPDVDLEP”, the “soluble on expression in E. coli” value was “soluble”.
With “RPVWYGDPISTSTSHRDLMLVVDLSYSMSQEDMQSGQQMVDRLTAVKQVLSEFIAKREGDRIGLILFADHAYLQTPLTLDRQTVANQLNQTVLKLIGTQTAIGEGIGLATKTFIDSDAPQRVMILLSDGSNTAGVLDPLEAANIAKQYNTTIYTVGVGAGEMVVKDFLFSRKVNTAQDLDEKTLQTIATTTGGHYFRARNQQDLQNIYDTINQLEPISQSN” the “soluble on expression in E. coli” value was “not soluble”.
